Assay [1] addresses CXCR4 mutant Y121A (human) (UniProt P61073). Briefly: 12G5 antibody competition binding on cells.
In assay [2] the target is CXCR4 mutant DNX4 (human) (UniProt P61073). The assay is described as follows: 12G5 antibody competition binding on cells.
The target in assay [3] is CXCR4 mutant F87A (human) (UniProt P61073). Briefly: 12G5 antibody competition binding on cells.
Assay [4] addresses CXCR4 mutant Y45A (human) (UniProt P61073). Briefly: 12G5 antibody competition binding on cells.
Assay [5] deals with chemokine receptor CXCR4, wild type (human) (UniProt P61073). Briefly: 12G5 antibody competition binding on cells.
The target in assay [6] is CXCR4 mutant F292A (human) (UniProt P61073). The assay is described as follows: 12G5 antibody competition binding on cells.
The target of assay [7] is CXCR4 mutant W252A (human) (UniProt P61073). Briefly: 12G5 antibody competition binding on cells.
In assay [8] the target is CXCR4 mutant E288D (human) (UniProt P61073). Briefly: 12G5 antibody competition binding on cells.
Assay [9] addresses CXCR4 mutant Y255A (human) (UniProt P61073). The assay is described as follows: 12G5 antibody competition binding on cells.
Assay [10] has as its target CXCR4 mutant D171A (human) (UniProt P61073). Briefly: 12G5 antibody competition binding on cells.
A further assay addresses CXCR4 (Homo sapiens, UniProt P61073). Briefly: Intracellular calcium mobilization in Sup T1 cells. The assay is classed as cell-based. As to conditions: 50 nM, Sup T1 cells expressing CXCR4, fura-2; representative of at least three independent experiments. (In general: A change in cytosolic calcium serves as a functional read-out for many receptors and channels.)

DV1 dimer (peptide): the decrease of binding against wild-type CXCR4 in assay [1] was 20%; in [3] it was 40%; in [4], 20%; in assay [6], 20%; in assay [7], 20%; in assay [8] it was 40%. Also, the decrease of binding against wild-type CXCR4 came to 20% in assay [9] and 60% in [10]. Besides, the increase of % bound 12G5 against wild-type CXCR4 in assay [2] amounted to 15%. In assay [5], this substance came in with an IC50 of 3 nM.
For stromal cell-derived factor-1α [SDF-1α], at CXCR4, the “Mobilization of calcium (Ca2+)” value is “rapid Ca^2+ mobilization”.

For orientation: IC50 means the concentration at which inhibition is half-maximal.

The values are drawn from paper PMC3476724 (Biochemistry, 2012).
